The source of these data is paper PMC6509359 (Molecular Cell, 2019).

Data set [1] deals with the molecule itself. Put plainly: native gel or EMSA; native PAGE of lysate of untreated HEK293 cells, immunoblotting for the endogenous protein; recombinant USP25 tetramer and dimer fractions as size standard.
Data set [2] concerns the molecule itself. Put plainly: cell-based or functional assay.
Data set [3] deals with the molecule itself. Put plainly: not stated; oligomeric state of the purified deletion construct, Figure S4F (legend not shown).
Data set [4] concerns the molecule itself. Description: SAXS; SEC-SAXS, 45 μL at 3-12 mg/mL, Shodex KW-403, buffer E (20 mM Tris pH 8.0, 100 mM NaCl, 5 mM DTT); compared with curves calculated from the crystal structures.

B1: endogenous USP28 (enzyme, human (endogenous in HEK293), UniProt Q96RU2 1-1077, looked up)
chain: MTAELQQDDAAGAADGHGSSCQMLLNQLREITGIQDPSFLHEALKASNGDITQAVSLLTDERVKEPSQDTVATEPSEVEGSAANKEVLAKVIDLTHDNKDDLQAAIALSLLESPKIQADGRDLNRMHEATSAETKRSKRKRCEVWGENPNPNDWRRVDGWPVGLKNVGNTCWFSAVIQSLFQLPEFRRLVLSYSLPQNVLENCRSHTEKRNIMFMQELQYLFALMMGSNRKFVDPSAALDLLKGAFRSSEEQQQDVSEFTHKLLDWLEDAFQLAVNVNSPRNKSENPMVQLFYGTFLTEGVREGKPFCNNETFGQYPLQVNGYRNLDECLEGAMVEGDVELLPSDHSVKYGQERWFTKLPPVLTFELSRFEFNQSLGQPEKIHNKLEFPQIIYMDRYMYRSKELIRNKRECIRKLKEEIKILQQKLERYVKYGSGPARFPLPDMLKYVIEFASTKPASESCPPESDTHMTLPLSSVHCSVSDQTSKESTSTESSSQDVESTFSSPEDSLPKSKPLTSSRSSMEMPSQPAPRTVTDEEINFVKTCLQRWRSEIEQDIQDLKTCIASTTQTIEQMYCDPLLRQVPYRLHAVLVHEGQANAGHYWAYIYNQPRQSWLKYNDISVTESSWEEVERDSYGGLRNVSAYCLMYINDKLPYFNAEAAPTESDQMSEVEALSVELKHYIQEDNWRFEQEVEEWEEEQSCKIPQMESSTNSSSQDYSTSQEPSVASSHGVRCLSSEHAVIVKEQTAQAIANTARAYEKSGVEAALSEVMLSPAMQGVILAIAKARQTFDRDGSEAGLIKAFHEEYSRLYQLAKETPTSHSDPRLQHVLVYFFQNEAPKRVVERTLLEQFADKNLSYDERSISIMKVAQAKLKEIGPDDMNMEEYKKWHEDYSLFRKVSVYLLTGLELYQKGKYQEALSYLVYAYQSNAALLMKGPRRGVKESVIALYRRKCLLELNAKAASLFETNDDHSVTEGINVMNELIIPCIHLIINNDISKDDLDAIEVMRNHWCSYLGQDIAENLQLCLGEFLPRLLDPSAEIIVLKEPPTIRPNSPYDLCSRFAAVMESIQGVSTVTVK
notes: USP28, endogenous in untreated HEK293 cells; source: endogenous, HEK293 lysate
As for B1, the “stoichiometry N” value in data set [1] was found to be 2.

B2: Human USP25 (157-Δ(465-535)-714) (domain or fragment)
chain: NPYDRKRQDKAPVGLKNVGNTCWFSAVIQSLFNLLEFRRLVLNYKPPSNAQDLPRNQKEHRNLPFMRELRYLFALLVGTKRKYVDPSRAVEILKDAFKSNDSQQQDVSEFTHKLLDWLEDAFQMKAEEETDEEKPKNPMVELFYGRFLAVGVLEGKKFENTEMFGQYPLQVNGFKDLHECLEAAMIEGEIESLHSENSGKSGQEHWFTELPPVLTFELSRFEFNQALGRPEKIHNKLEFPQVLYLDRYMHRNREITRIKREEIKRLKDYLTVLQQRLERYLSYGSGPKRFPLVDVLQYALEFASSKPVGSGSGSAPRHITEEELSVLESCLHRWRTEIENDTRDLQESISRIHRTIELMYSDKSMIQVPYRLHAVLVHEGQANAGHYWAYIFDHRESRWMKYNDIAVTKSSWEELVRDSFGGYRNASAYCLMYINDKAQFLIQEEFNKETGQPLVGIETLPPDLRDFVEEDNQRFEKELEEWDAQLAQKALQE
notes: USP25, human, residues 536-714; source: E. coli Rosetta2(DE3)pLacI, purified (HisTrap, 3C protease, Resource Q, size exclusion)
B2: in data set [2], the “Ub-KG-TAMRA cleavage activity against the tetrameric wild-type USP25 (157-714)” value worked out at 6 fold. The “stoichiometry N” value in data set [3] was 2.

B3: Human USP28 (149-703) (domain or fragment, UniProt Q96RU2 149-703, looked up)
chain: PNPNDWRRVDGWPVGLKNVGNTCWFSAVIQSLFQLPEFRRLVLSYSLPQNVLENCRSHTEKRNIMFMQELQYLFALMMGSNRKFVDPSAALDLLKGAFRSSEEQQQDVSEFTHKLLDWLEDAFQLAVNVNSPRNKSENPMVQLFYGTFLTEGVREGKPFCNNETFGQYPLQVNGYRNLDECLEGAMVEGDVELLPSDHSVKYGQERWFTKLPPVLTFELSRFEFNQSLGQPEKIHNKLEFPQIIYMDRYMYRSKELIRNKRECIRKLKEEIKILQQKLERYVKYGSGPARFPLPDMLKYVIEFASTKPASESCPPESDTHMTLPLSSVHCSVSDQTSKESTSTESSSQDVESTFSSPEDSLPKSKPLTSSRSSMEMPSQPAPRTVTDEEINFVKTCLQRWRSEIEQDIQDLKTCIASTTQTIEQMYCDPLLRQVPYRLHAVLVHEGQANAGHYWAYIYNQPRQSWLKYNDISVTESSWEEVERDSYGGLRNVSAYCLMYINDKLPYFNAEAAPTESDQMSEVEALSVELKHYIQEDNWRFEQEVEEWEEEQSCKI
notes: also called USP28 catalytic domain; source: E. coli Rosetta2(DE3)pLacI, purified (HisTrap, 3C protease, Resource Q, size exclusion)
On to B3, for which the “stoichiometry N” value in data set [4] is 2.
